Assay results reported in patent US9777056B2, “Immunotherapy for clearing pathological tau conformers” (New York University, priority 2006, dated 2017).

Test: Thioflavin T (ThT) in vitro fibrillogenesis assay
Type: physicochemical
Details: 0.1 M Tris pH 7.4, incubated for different times
Description: ThT binds specifically to β-sheet structure and this binding produces a shift in its emission spectrum and a fluorescent enhancement proportional to the amount of amyloid formed. Following the incubation period, 50 mM glycine, pH 9.2, and 2 μM ThT was added to a final volume of 200 μl containing 3 μg of the immunogen or the P301L tau peptide (with or without equimolar concentration of antibodies purified from the immunized mice). Fluorescence was measured at excitation 435 nm and emission 485 nm on a SpectraMax M2 multi-detection plate reader (Molecular Devices, Sunnyvale, Calif.).

Aβ1-42: amyloid-β control peptide used for comparison in ThT and MTT assays
fibril formation (fibrillogenicity), Thioflavin T fluorescence: very fibrillogenic
